Assay [1] deals with NCI-H929 cells. As to the kind of experiment: ADCC with human PBMCs, flow cytometry (CalceinAM/PI).
Assay [2] concerns AMO-1 cells. The assay is described as above. The format is cell-based. To be noted: Exp. 1-3. As to the method:
For Tables 3b-c, “Theoretical Combination” represents the addition of the values of MOR202 alone and the values of LEN alone. The normalized data of Table 3b is calculated as follows. Therefore, the specific killing values of Table 3b are calculated by subtracting the values of the controls. Then the specific killing values are compared to the MOR202 group, which is set as 1.
The constant m determines the shape of the dose-effect curve. We used Excel Fit software to carry out a linear regression calculation to estimate the parameters m and D50.
The CI-isobol method provides a quantitative assessment of synergism between drugs. A combination index (CI) is estimated from dose-effect data of single and combined drug treatments. […] Formally, the combination index (CI) of a combined drug treatment is defined as CI=D1/Dx1+D2/Dx2
The data is analysed in the following way: Antagonistic(AB)/C<(A/C)×(B/C) Additive(AB)/C=(A/C)×(B/C) Synergistic(AB)/C>(A/C)×(B/C) where A is the treatment with LEN alone; B is the treatment with MOR202 alone; C is response to the treatment vehicle; AB is combination of treatments A and B.

“And” between values parts separate entries of the source, which are not always exact repeats. Equal entries are not always repeated.

B1: MOR03207: binds lysosyme, and is used as isotype control, as it is IgG1 (SEQ ID NO: 8, 9) (antibody, V domains shown)
VH: QVQLQQSGPGLVKPSQTLSLTCAISGDSVSSNSAAWSWIRQSPGRGLEWLGRIYYRSKWYNDYAVSVKSRITINPDTSKNQFSLQLNSVTPEDTAVYYCARLDHRYHEDTVYPGMDVWGQGTLVTVSS
VL: DIELTQPPSVSVAPGQTARISCSGDNLPAYTVTWYQQKPGQAPVLVIYDDSDRPSGIPERFSGSNSGNTATLTISGTQAEDEADYYCASWDPSSGVVFGGGTKLTVLGQ
modifications: /mol_type=“protein” /note=“variable heavy chain” /organism=“synthetic construct”; /mol_type=“protein” /note=“variable light chain” /organism=“synthetic construct”
For the molecule B1, the “% dead cells (raw data, Table 7a), Exp. 2 and 3” value in assay [1] (PBMCs and NCI-H929 cells treated with LEN before MOR202, LEN 5 μM, MOR202 0.07 μg/ml, MOR03207 15 μg/ml) is 14.09 % dead cells and 19.20 % dead cells. In addition, in assay [1] (PBMCs and NCI-H929 cells treated with LEN before MOR202, LEN 5 μM, MOR202 0.2 μg/ml (*), MOR03207 15 μg/ml), the “% dead cells (raw data, Table 7a), Exp. 1” value is 17.81 % dead cells. In addition, the “% dead cells, MOR03207 (15 μg/ml) + DMSO (Table 7a)” value in assay [1] (control group, PBMCs and NCI-H929 cells LEN-treated series, Exp. 1-3) is 13.74 % dead cells and 18.27 % dead cells and 20.26 % dead cells. Also, in assay [1] (control group, effector-only series, Exp. 1-3), the “% dead cells, MOR03207 (15 μg/ml) + DMSO (Table 8a)” value is 24.43 % dead cells and 19.52 % dead cells and 24.16 % dead cells. Besides, in assay [1] (only effector cells treated with LEN before MOR202, LEN 5 μM, MOR202 0.07 μg/ml, MOR03207 15 μg/ml), the “% dead cells (raw data, Table 8a), Exp. 2 and 3” value is 27.10 % dead cells and 23.19 % dead cells. Moreover, in assay [1] (only effector cells treated with LEN before MOR202, LEN 5 μM, MOR202 0.2 μg/ml (*), MOR03207 15 μg/ml), the “% dead cells (raw data, Table 8a), Exp. 1” value is 17.07 % dead cells. Moreover, in assay [2] (control group of the effector-only experiments), the “% dead cells, MOR03207 15 μg/ml + DMSO (Table 4a)” value was 15.77 % dead cells and 15.97 % dead cells and 11.45 % dead cells. In assay [2] (only PBMCs (effector cells) treated with LEN before MOR202, LEN 10 μM, MOR202 and MOR03207 15 μg/ml), the “% dead cells (raw data, Table 4a)” value is 17.42 % dead cells and 16.17 % dead cells and 12.17 % dead cells.

(Values after patent US9289490B2, “Combinations and uses thereof” (MORPHOSYS AG, priority 2010, dated 2016).)
